The target of data set [1] is 549-SNAP-VopF (Vibrio cholera (so in the source)). The experiment in a line: photobleaching step counting of single molecules.
Data set [2] concerns the molecule itself. The experiment in a line: photobleaching step counting of single molecules.

In turn, 549-SNAP-VopF (domain or fragment) displayed a stoichiometry N in data set [1] of 2.

B1: 549-SNAP-VopL (domain or fragment)
chain: LSIKHGSSIPPAPPLPGAIPPAPPLNLSKGAPKSSSNSLDSVNEDHSKLMEQIRQGVKLKSATKSLSADKSSADAHSKLMEELLTGGRKLKKVATSDIPAPPPLPSASTSKSPDSRNALLSEIAGFSKDRLRKTGSLETLNSSQSKDKESFEPTTHERLLSEDLFKQSPKLSEQELDELANNLADYLFQAADIDWHQVISEKTRGLTTEEMAKSEHRYVQAFCREILKYPDCYKSADVASPESPKSGGGSVIDVALKRLQTGRERLFTTTDEKGNRELKKGDAILESAINAARMAISTEEKNTILSNNVKSATFEVFCELPCMDGFAEQNGKTAFYALRAGFYSAFKNTDTAKQDITKFMKDNLQAGFSGYSYQGLTNRVAQLEAQLAALSAKLS
modifications: SNAP-Surface 549 on the SNAP-tag (labeling efficiency ~75%)
B1: the “stoichiometry N” value in data set [2] turned out to be 2.

For the origin of these results see paper PMC5412564 (The Journal of Cell Biology, 2017).
